Reference: publication PMC2671562, “Structural and Functional Analyses of PAS Domain Interactions of the Clock Proteins Drosophila PERIOD and Mouse PERIOD2” (PLoS Biology, 2009)

B1: mouse PERIOD2 fragment mPER2[170–473] (domain or fragment)
chain: GSSYSMEQVEGITSEYIVKNADMFAVAVSLVSGKILYISNQVASIFHCKKDAFSDAKFVEFLAPHDVSVFHSYTTPYKLPPWSVCSGLDSFTQECMEEKSFFCRVSVGKHHENEIRYQPFRMTPYLVKVQEQQGAESQLCCLLLAERVHSGYEAPRIPPEKRIFTTTHTPNCLFQAVDERAVPLLGYLPQDLIETPVLVQLHPSDRPLMLAIHKKILQAGGQPFDYSPIRFRTRNGEYITLDTSWSSFINPWSRKISFIIGRHKVRVGPLNEDVFAAPPCPEEKTPHPSVQELTEQIHRLLMQPVP
notes: two additional N-terminal residues (Gly168 and Ser169) seen in molecule 1 of the crystal, cloning artefacts; GST fusion from pGEX-6P2, GST removed with PreScission protease; also called crystallized mPER2 fragment
B2: dPER[232–599] M560D (domain or fragment)
chain: not shown
notes: also called dPER(M560D)
B3: mouse PERIOD2 fragment mPER2[128–473], wild-type (domain or fragment, UniProt O54943 128-473, looked up)
chain: GKASTLATLKYALRSVKQVKANEEYYQLLMSSESQPCSVDVPSYSMEQVEGITSEYIVKNADMFAVAVSLVSGKILYISNQVASIFHCKKDAFSDAKFVEFLAPHDVSVFHSYTTPYKLPPWSVCSGLDSFTQECMEEKSFFCRVSVGKHHENEIRYQPFRMTPYLVKVQEQQGAESQLCCLLLAERVHSGYEAPRIPPEKRIFTTTHTPNCLFQAVDERAVPLLGYLPQDLIETPVLVQLHPSDRPLMLAIHKKILQAGGQPFDYSPIRFRTRNGEYITLDTSWSSFINPWSRKISFIIGRHKVRVGPLNEDVFAAPPCPEEKTPHPSVQELTEQIHRLLMQPVP
notes: also called N-terminally extended PAS domain fragment
B4: Drosophila PERIOD fragment dPER[232–599], wild-type (domain or fragment)
chain: not shown
notes: GST fusion from pGEX-6P2, GST removed with PreScission protease
B5: dPER[232–599] W482E (domain or fragment)
chain: not shown
notes: also called dPER(W482E)

Target: the molecule itself
Test: AUC; sedimentation equilibrium, interference optics, 10 °C, 25 mM HEPES pH 7.7, 100 mM NaCl, 2 mM DTE; four starting concentrations from stocks of 0.8–2 mg/ml; dimer to monomers, K D = 1/K A

| Protein | Kd [nM] |
| --- | --- |
| B1 | 1340 |
| B2 | 7140 |
| B3 | 2250 |
| B4 | 200 |
| B5 | 3700 |
